One assay concerns CGRP receptor. The settings on record: versus CGRP(27–37); cited from earlier work. The text has this:
The mutational strategies for developing high-affinity sCT peptide fragments came from the systemic report on CGRP and its high-affinity analogs. […] This supports the idea that applying affinity-enhancing mutations to the cor ...

A further assay has as its target T1, FITC-labeled sCT(22–32) (salmon, SMILES …).
T1 construct: salmon calcitonin (sCT), residues 22-32; numbers count on: the mature 32-residue hormone; peptide probe of the FP assay with the CTR ECD; also called FITC-sCT(22–32); source: synthetic peptide (Genscript, HPLC-purified)
T1 peptide: {FITC-Ahx}-YPRTNTGSGTP-NH2
Description: fluorescence polarisation; saturation binding: FITC-labeled peptide probe (10 nM) with rising receptor ECD concentrations; receptor ECD concentration at half of the maximal anisotropy. The conditions noted are these: both partners purified.

Assay [1] concerns the target T2, RAMP1-CTR ECD fusion protein (hRAMP1.24–111-(GSA)3-hCTR.34–141-H6) (human, UniProt O60894 24-111; P30988 34-141).
T2 construct: human receptor activity-modifying protein 1 (RAMP1), extracellular domain, residues 24-111; linker, printed as (GSA)3; human calcitonin receptor (CTR), extracellular domain, residues 34-141; Secreted from a pHLsec-based vector; also called AMY receptor 1 ECD; RAMP1 ECD-CTR ECD fusion; source: HEK293T, transiently transfected, secreted to cell culture media, purified (IMAC, SEC)
T2 chain: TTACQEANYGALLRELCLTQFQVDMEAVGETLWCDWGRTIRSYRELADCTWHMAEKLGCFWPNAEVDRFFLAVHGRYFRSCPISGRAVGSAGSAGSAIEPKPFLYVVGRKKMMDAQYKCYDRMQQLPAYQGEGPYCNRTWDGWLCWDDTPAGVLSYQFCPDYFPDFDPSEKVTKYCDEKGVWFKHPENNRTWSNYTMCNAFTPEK
Description: fluorescence polarisation; competition binding, full curves: FITC-AC413(6–25) Y25P probe 10 nM, RAMP1-CTR ECD 77 nM, RAMP2-CTR ECD 67 nM or RAMP3-CTR ECD 252 nM, competitive peptide at multiple concentrations, all in solution; KI from non-linear regression of anisotropy. The conditions noted are these: both partners purified.

Assay [2] concerns the target T3, RAMP3-CTR ECD fusion protein (hRAMP3.25–112-(GSA)3-hCTR.34–141-H6) (human, UniProt O60896 25-112; P30988 34-141).
T3 construct: human receptor activity-modifying protein 3 (RAMP3), extracellular domain, residues 25-112; linker, printed as (GSA)3; human calcitonin receptor (CTR), extracellular domain, residues 34-141; Secreted from a pHLsec-based vector; also called AMY receptor 3 ECD; RAMP3 ECD-CTR ECD fusion protein; source: HEK293S GnTI-, transiently transfected (PEI), secreted to cell culture media, purified (IMAC, SEC)
T3 chain: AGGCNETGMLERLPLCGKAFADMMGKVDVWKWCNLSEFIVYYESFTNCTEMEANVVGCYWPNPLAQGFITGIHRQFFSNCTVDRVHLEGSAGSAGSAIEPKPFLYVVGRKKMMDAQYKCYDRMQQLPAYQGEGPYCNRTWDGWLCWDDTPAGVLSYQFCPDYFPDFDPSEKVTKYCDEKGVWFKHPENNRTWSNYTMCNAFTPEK
The description is as above. The settings on record: both partners purified.

Assay [3] concerns the target T4, RAMP2-CTR ECD fusion protein (hRAMP2.55–140-(GSA)3-hCTR.34–141-H6) (human, UniProt O60895 55-140; P30988 34-141).
T4 construct: human receptor activity-modifying protein 2 (RAMP2), extracellular domain, residues 55-140; linker, printed as (GSA)3; human calcitonin receptor (CTR), extracellular domain, residues 34-141; Secreted from a pHLsec-based vector; also called AMY receptor 2 ECD; RAMP2 ECD-CTR ECD fusion; source: HEK293T, transiently transfected, secreted to cell culture media, purified (IMAC, SEC)
T4 chain: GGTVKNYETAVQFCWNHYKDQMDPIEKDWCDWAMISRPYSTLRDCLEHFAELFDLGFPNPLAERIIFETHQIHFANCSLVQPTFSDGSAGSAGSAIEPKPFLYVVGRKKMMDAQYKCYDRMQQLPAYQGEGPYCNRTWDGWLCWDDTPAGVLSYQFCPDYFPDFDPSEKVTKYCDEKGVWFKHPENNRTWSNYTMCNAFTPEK
The assay is described as above. The settings on record: both partners purified.

The star is where a group is joined. FITC = O=C1OC2(c3ccc(O)cc3Oc3cc(O)ccc32)c2ccc(NC(=S)*)cc21; Ahx = NCCCCCC(=O)O

With “CGRPmut: human alpha CGRP(27–37) with N31D, S34P, and K35F mutations”, in the assay on CGRP receptor, the “increase in CGRP affinity for its receptor” value is 100 fold.

B1: calcitonin receptor extracellular domain (hCTR.34–141-H6) (receptor, human, UniProt P30988 34-141, looked up)
chain: IEPKPFLYVVGRKKMMDAQYKCYDRMQQLPAYQGEGPYCNRTWDGWLCWDDTPAGVLSYQFCPDYFPDFDPSEKVTKYCDEKGVWFKHPENNRTWSNYTMCNAFTPEK
notes: human calcitonin receptor (CTR), extracellular domain, residues 34-141; Secreted from a pHLsec-based vector; also called CTR ECD; purified CTR ECD; source: HEK293T, transiently transfected, secreted to cell culture media, purified (IMAC, SEC)
On to B1, for which, in the assay with FITC-labeled sCT(22–32), the “receptor ECD concentration that produced a half of the maximal anisotropy with the peptide probe” value amounted to 500 nM.

B2: FITC-labeled AC413(6–25) with Y25P mutation (peptide)
peptide: {FITC-Ahx}-ANFLVRLQTYPRTNVGANTP-NH2
SMILES: CC(C)C[C@H](NC(=O)[C@H](CCCNC(=N)N)NC(=O)[C@@H](NC(=O)[C@H](CC(C)C)NC(=O)[C@H](Cc1ccccc1)NC(=O)[C@H](CC(N)=O)NC(=O)[C@H](C)NC(=O)CCCCCNC(=S)Nc1ccc2c(c1)C(=O)OC21c2ccc(O)cc2Oc2cc(O)ccc21)C(C)C)C(=O)N[C@@H](CCC(N)=O)C(=O)N[C@H](C(=O)N[C@@H](Cc1ccc(O)cc1)C(=O)N1CCC[C@H]1C(=O)N[C@@H](CCCNC(=N)N)C(=O)N[C@H](C(=O)N[C@@H](CC(N)=O)C(=O)N[C@H](C(=O)NCC(=O)N[C@@H](C)C(=O)N[C@@H](CC(N)=O)C(=O)N[C@H](C(=O)N1CCC[C@H]1C(N)=O)[C@@H](C)O)C(C)C)[C@@H](C)O)[C@@H](C)O
notes: residues 6-25 of AC413, an antagonistic amylin peptide analog, with Y25P; peptide probe of the FP assay with the AMY receptor ECDs; also called FITC-AC413(6–25) Y25P; source: synthetic peptide (Genscript, HPLC-purified)
As to B2, the binding result in assay [1], in assay [2] and in assay [3] was “binds” each time.
